Measured values published in publication PMC7266993 (2020).

B1: FLAG epitope-tagged STAG1, wild type (transient, HEK293) [human] / RAD21 (endogenous, HEK293) [human (endogenous in HEK293)] (parent complex)
chain 1: MITSELPVLQDSTNETTAHSDAGSELEETEVKGKRKRGRPGRPPSTNKKPRKSPGEKSRIEAGIRGAGRGRANGHPQQNGEGEPVTLFEVVKLGKSAMQSVVDDWIESYKQDRDIALLDLINFFIQCSGCRGTVRIEMFRNMQNAEIIRKMTEEFDEDSGDYPLTMPGPQWKKFRSNFCEFIGVLIRQCQYSIIYDEYMMDTVISLLTGLSDSQVRAFRHTSTLAAMKLMTALVNVALNLSIHQDNTQRQYEAERNKMIGKRANERLELLLQKRKELQENQDEIENMMNSIFKGIFVHRYRDAIAEIRAICIEEIGVWMKMYSDAFLNDSYLKYVGWTLHDRQGEVRLKCLKALQSLYTNRELFPKLELFTNRFKDRIVSMTLDKEYDVAVEAIRLVTLILHGSEEALSNEDCENVYHLVYSAHRPVAVAAGEFLHKKLFSRHDPQAEEALAKRRGRNSPNGNLIRMLVLFFLESELHEHAAYLVDSLWESSQELLKDWECMTELLLEEPVQGEEAMSDRQESALIELMVCTIRQAAEAHPPVGRGTGKRVLTAKERKTQIDDRNKLTEHFIITLPMLLSKYSADAEKVANLLQIPQYFDLEIYSTGRMEKHLDALLKQIKFVVEKHVESDVLEACSKTYSILCSEEYTIQNRVDIARSQLIDEFVDRFNHSVEDLLQEGEEADDDDIYNVLSTLKRLTSFHNAHDLTKWDLFGNCYRLLKTGIEHGAMPEQIVVQALQCSHYSILWQLVKITDGSPSKEDLLVLRKTVKSFLAVCQQCLSNVNTPVKEQAFMLLCDLLMIFSHQLMTGGREGLQPLVFNPDTGLQSELLSFVMDHVFIDQDEENQSMEGDEEDEANKIEALHKRRNLLAAFSKLIIYDIVDMHAAADIFKHYMKYYNDYGDIIKETLSKTRQIDKIQCAKTLILSLQQLFNELVQEQGPNLDRTSAHVSGIKELARRFALTFGLDQIKTREAVATLHKDGIEFAFKYQNQKGQEYPPPNLAFLEVLSEFSSKLLRQDKKTVHSYLEKFLTEQMMERREDVWLPLISYRNSLVTGGEDDRMSVNSGSSSSKTSSVRNKKGRPPLHKKRVEDESLDNTWLNRTDTMIQTPGPLPAPQLTSTVLRENSRPMGDQIQEPESEHGSEPDFLHNPQMQISWLGQPKLEDLNRKDRTGMNYMKVRTGVRHAVRGLMEEDAEPIFEDVMMSSRSQLEDMNEEFEDTMVIDLPPSRNRRERAELRPDFFDSAAIIEDDSGFGMPMF
chain 2: MFYAHFVLSKRGPLAKIWLAAHWDKKLTKAHVFECNLESSVESIISPKVKMALRTSGHLLLGVVRIYHRKAKYLLADCNEAFIKIKMAFRPGVVDLPEENREAAYNAITLPEEFHDFDQPLPDLDDIDVAQQFSLNQSRVEEITMREEVGNISILQENDFGDFGMDDREIMREGSAFEDDDMLVSTTTSNLLLESEQSTSNLNEKINHLEYEDQYKDDNFGEGNDGGILDDKLISNNDGGIFDDPPALSEAGVMLPEQPAHDDMDEDDNVSMGGPDSPDSVDPVEPMPTMTDQTTLVPNEEEAFALEPIDITVKETKAKRKRKLIVDSVKELDSKTIRAQLSDYSDIVTTLDLAPPTKKLMMWKETGGVEKLFSLPAQPLWNNRLLKLFTRCLTPLVPEDLRKRRKGGEADNLDEFLKEFENPEVPREDQQQQHQQRDVIDEPIIEEPSRLQESVMEASRTNIDESAMPPPPPQGVKRKAGQIDPEPVMPPQQVEQMEIPPVELPPEEPPNICQLIPELELLPEKEKEKEKEKEDDEEEEDEDASGGDQDQEERRWNKRTQQMLHGLQRALAKTGAESISLLELCRNTNRKQAAAKFYSFLVLKKQQAIELTQEEPYSDIIATPGPRFHII

Variants of: B1
Experiment: co-immunoprecipitation (anti-FLAG IP), capillary immunodetection assay; HEK293; read off a plot

| ratio to parent | Variant |
| --- | --- |
| ~0.06 | chain 1 D797A |
| ~0.08 | chain 1 D797K |
